Assay [1] has as its target Vps75–Rtt109 complex reconstituted at 2:2 from individually purified proteins (Saccharomyces cerevisiae) (UniProt P53853). Nature of the assay: AUC; sedimentation velocity; 0.5 or 1 equivalent of H3-H4 or H3DM-H4 titrated against Vps75–Rtt109 reconstituted at 2:2 or 2:1 (relative to 7.5 μM Vps75), with 2:2 mixes of Vps75 and histones for reference; 20 mM Tris pH 7.5, 150 mM NaCl, 0.5 mM TCEP, 20°C. Particulars: scale: H3-H4 per Vps75 dimer.

Assay [2] addresses co-expressed and co-purified 2:1 Vps75–Rtt109 complex (Saccharomyces cerevisiae) (UniProt P53853). Nature of the assay: SEC-MALS; 20 μM co-expressed 2:1 Vps75–Rtt109 with 20 or 40 μM H3-H4 or H3DM-H4; Superdex 200 Increase 10/300 GL; 20 mM Tris–HCl pH 7.5, 300 mM NaCl, 0.5 mM TCEP.
Assay [3] deals with Vps75–Rtt109 complex reconstituted at 2:1 from individually purified proteins (Saccharomyces cerevisiae) (UniProt P53853). The experiment in a line: AUC; sedimentation velocity; 0.5 or 1 equivalent of H3-H4 or H3DM-H4 titrated against Vps75–Rtt109 reconstituted at 2:2 or 2:1 (relative to 7.5 μM Vps75), with 2:2 mixes of Vps75 and histones for reference; 20 mM Tris pH 7.5, 150 mM NaCl, 0.5 mM TCEP, 20°C.

The target in assay [4] is 2:1:1 Vps75–Rtt109–(H3-H4) complex, reconstituted from individually purified Vps75 and Rtt109 (Saccharomyces cerevisiae | Xenopus laevis) (UniProt P53853). The assay is described as above.
Assay [5] deals with 2:1:1 Vps75–Rtt109–(H3-H4) complex formed from co-expressed Vps75–Rtt109 (Saccharomyces cerevisiae | Xenopus laevis) (UniProt P53853). The experiment in a line: SEC-MALS; 20 μM co-expressed 2:1 Vps75–Rtt109 with 20 or 40 μM H3-H4 or H3DM-H4; Superdex 200 Increase 10/300 GL; 20 mM Tris–HCl pH 7.5, 300 mM NaCl, 0.5 mM TCEP. For orientation: In gel filtration, larger molecules generally elute earlier.

The values below come from publication PMC7494816.

Turning to “Xenopus laevis histones H3-H4 (wild type), refolded (from UniProt P84233 1-136; P62799 1-103) (complex)”, the stoichiometry N – broadly, a count of units in the complex or per binding partner – in assay [1] was 1. In addition, the stoichiometry N (H3-H4 per 2:1 Vps75–Rtt109 (2:1:1)) in assay [2] is 1.

For the substance “Xenopus laevis H3DM-H4 (H3 dimerization mutant C110E, L126A, I130A with H4), refolded (from UniProt P62799 1-103) (complex)”, the stoichiometry N (H3DM-H4 per Vps75 dimer (printed 2:2:1)) in assay [3] was found to be 1. Also, the stoichiometry N (H3DM-H4 per 2:1 Vps75–Rtt109 (2:1:1)) in assay [2] was 1.

For “2:1:1 Vps75–Rtt109–(H3-H4) complex, reconstituted from individually purified Vps75 and Rtt109 (from UniProt P53853 1-264; Q07794 1-436; P84233 1-136; P62799 1-103)”, the stoichiometry N (copies of the 2:1:1 complex (4:2:2)) in assay [4] came to 2.

Substance “2:1:1 Vps75–Rtt109–(H3-H4) complex formed from co-expressed Vps75–Rtt109 (from UniProt P53853 1-264; Q07794 1-436; P84233 1-136; P62799 1-103)” displayed a stoichiometry N (copies of the 2:1:1 sub-complex (4:2:2)) in assay [5] of 2.
